Measurements taken from PMC4880302, “A Chimeric Pneumovirus Fusion Protein Carrying Neutralizing Epitopes of Both MPV and RSV” (PLoS ONE, 2016).

Biological target: T1, wild-type HMPV F protein (soluble, secreted, with C-terminal GCNt trimerization domain) (human metapneumovirus, B2 strain)
T1 construct: fusion (F) glycoprotein of human metapneumovirus, B2 strain; soluble secreted form, GCNt joined in-frame with the heptad repeat of the C-terminal HRB; Preparations are mixtures of pre- and post-fusion forms; heating to 50°C for 30 min converts them to the post-fusion form (written as assays of their own); The trimer may rest in part on the GCNt domain; also called wt HMPV F; MPV F-GCNt; not …
Test: SPR; BiOptix 404pi; F proteins captured on NiHC1000m chip through their C-terminal His tag to 120 RU; Fab injected at 300 to 0.14 nM, 100 ul/min; 10 mM HEPES pH 7.2, 150 mM NaCl, 0.005% Tween 20, 50 uM EDTA; simple Langmuir model
Details: both partners purified

B1: motavizumab Fab (affinity-matured variant of palivizumab, anti-RSV F site II/A) (Fab, V domains shown)
VH: QVTLRESGPALVKPTQTLTLTCTFSGFSLSTAGMSVGWIRQPPGKALEWLADIWWDDKKHYNPSLKDRLTISKDTSKNQVVLKVTNMDPADTATYYCARDMIFNFYFDVWGQGTTVTVSS
VL: DIQMTQSPSTLSASVGDRVTITCSASSRVGYMHWYQQKPGKAPKLLIYDTSKLASGVPSRFSGSGSGTEFTLTISSLQPDDFATYYCFQGSGYPFTFGGGTKVEIK
notes: heavy chain of the Fab in the motavizumab:RSV peptide complex PDB 3IXT; light chain of the Fab in the motavizumab:RSV peptide complex PDB 3IXT; Variable genes cloned into pEE6.4 (heavy) and pEE12.4 (light) vectors (Lonza); constant parts of the Fab construct are not described; source: FreeStyle 293-F cells, co-transfected (PEI), purified from supernatant (protein G column)
binding result: no binding
